Measured values published in article doi:10.1101/2025.09.09.675108 (bioRxiv, 2025).
Non-standard residues stand in square brackets, D forms with d. *: point of attachment. FITC = O=C1OC2(c3ccc(O)cc3Oc3cc(O)ccc32)c2ccc(NC(=S)*)cc21; pT = C[C@@H](OP(=O)(O)O)[C@H](N)C(=O)O

Legend:
Assay in all cases: fluorescence polarisation
[1] = target: DDIAS pS993 peptide (FITC-ETRSAWpSPELFS-NH2)
[2] = target: DDIAS pS676 peptide (FITC-SYDAp…-NH2)
[3] = target: recombinant TOPBP1 BRCT7/8 domain (amino acids 1264-1493), WT (UniProt Q92547 1264-1493)
Sequence of recombinant TOPBP1 BRCT7/8 domain (amino acids 1264-1493), WT (Q92547 1264-1493): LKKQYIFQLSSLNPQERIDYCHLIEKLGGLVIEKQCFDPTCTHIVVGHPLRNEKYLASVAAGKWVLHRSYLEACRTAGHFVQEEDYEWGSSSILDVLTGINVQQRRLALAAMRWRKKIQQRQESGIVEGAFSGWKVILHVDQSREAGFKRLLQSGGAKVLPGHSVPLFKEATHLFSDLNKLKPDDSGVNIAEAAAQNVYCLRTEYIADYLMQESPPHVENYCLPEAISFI

Molecule	Kd [1] [nM]	Kd [2] [nM]	Kd [3] [nM]
recombinant TOPBP1 BRCT7/8 domain (amino acids 1264-1493), WT (from UniProt Q92547 1264-1493) (domain or fragment)	1200	300	
{FITC}-ESIYF[pT]PELYDPEDT-NH2 [pBRIP1 peptide (FITC-ESIYFpTPELYDPEDT-NH2)]			200
